Here are results for 16 sequences from US20180348220.

A word on the Kd: it is the free concentration of one partner at which half of the binding sites on the other are occupied at equilibrium, for simple one-to-one binding. A lower Kd goes with a tighter complex.

Common to all, as to assay: flow
What all share (conditions): whole cells, 4C

Data set [1] relates to unidentified cell-surface target of T-47D cells (Homo sapiens).
Data set [2] concerns unidentified cell-surface target of MCF7 cells (Homo sapiens).
The subject of data set [3] is unidentified cell-surface target of MDA-MB-231 cells (Homo sapiens).

As to “GCGGCGAAGATCACNACTAGGGGNCCTCGCCGC [03-T47D (DsDs)]”, in data set [1] (n = Ds at 15 and 24, ±6.7), the Kd amounted to 91.6 nM. In other words, the double-digit nanomolar range.
As for “CTCTAGTCNGTCGAACTGTNATGAGCGTGCTAGGGGG [14A-MCF7 (37DsDs)]”, the Kd in data set [2] (n = Ds, ±0.1, Mg2+) is 2.1 nM. This lies in the single-digit nanomolar range.
“CCGCGCAGCCTGGGNTCTCTTTTAGTCNAGTTCAATCGCGCGG [07-MB231 (DsDs)]” had a Kd in data set [3] (n = Ds at 15 and 28, ±0.5) of 2.2 nM. That is a single-digit nanomolar value.
“GGCCCGGCTGGCATGTANTCATGCCTCCTGGNCTAAGGTTTCTAAAGGGCCCGCGTAGCG [08B-MCF7mh]”: the Kd in data set [2] (n = Ds, ±0.1 (printed 01)) came to 2.5 nM.
“GGCCCGGCTGGCGAAGCCTCCTGGNCTAAGGTTTCTAAAGGGCCCGCGTAGCG [08B-MCF7mh2]” showed a Kd in data set [2] (n = Ds, ±0.1) of 2.3 nM.
In data set [2] (n = Ds, ±0.02), “CGGTCNGTCGAACTGTNATGAGCGTGCCGCGCGTAGCG [14A-MCF7mh (38DsDs)]” displayed a Kd of 2.6 nM. That is a single-digit nanomolar value.
Consider “GCGGTCNGTCGAACTGTNATGAGCGTGCCGCCGCGTAGCG [14A-MCF7mh (40DsDs)]”, for which the Kd in data set [2] (n = Ds, ±0.2) stood at 2.2 nM.
Consider “CCCTCTTAAGTTTATAGNTGTCTTTTGGTNCCTAGGGCGTTTTAAAGGG [23-MB231b]”, for which, in data set [3] (n = Ds, ±5.6), the Kd turned out to be 23.3 nM.
Take “CGGCGGTCNGTCGAACTGTNATGAGCGTGCCGCCGCGCGTAGCG [14A-MCF7mh (44DsDs)]”: the Kd in data set [2] (n = Ds, ±0.2) amounted to 1.9 nM.
Sequence “GGCCCGGCTGGCATGTANTCATGCCTCCTGGNCTAAGGTTTCTAAAGGGCC [08B-MCF7 (51DsDs)]” displayed a Kd in data set [2] (n = Ds at 18 and 32, ±0.3) of 3.2 nM.
For the sequence “GCGGCGAAGATCACNACTAGGGGNCCTCGCCGCCGCGTAGCG [03-T47Dmh]”, the Kd in data set [1] (n = Ds, ±3.0) is 39.3 nM.
Regarding “CCGCGCAGCCTGGGNTCTCTTTTAGTCNAGTTCAATCGCGCGGCGCGTAGCG [07-MB231mh]”, the Kd in data set [3] (n = Ds, ±0.3) is 2 nM.
On to “GGCGCCAGGGGTGTTTGTGCCGTGAGNTGTGGCGCC [05-MB231GC]”, for which the Kd in data set [3] (n = Ds, ±0.2) is 2.2 nM. This counts as single-digit nanomolar.
For the sequence “GGCGGTCNGTCGAACTGTNATGAGCGTGCCGCCCGCGTAGCG [14A-MCF7mh]”, in data set [2] (n = Ds, ±0.2, printed 14A-MCF7rmh), the Kd amounted to 2.1 nM.
Take “GGCGCCAGGGGTGTTTGTGCCGTGAGNTGTGGCGCCCGCGTAGCG [05-MB231GCmh]”: in data set [3] (n = Ds, ±0.1), the Kd amounted to 1.6 nM.
As for “CCCTCTTAAGTTTATAGNTGTCTTTTGGTNCCTAGGGCGTTTTAAAGGGCGCGTAGCG [23-MB231bmh]”, the Kd in data set [3] (n = Ds, ±0.9) was 2.5 nM. This counts as single-digit nanomolar.
